B1: HDV Ribozyme (parent)
chain: GGCCGGCAUGGUCCCAGCCUCCUCGCUGGCGCCGGCUGGGCAACAUUCCGAGGGGACCGUCCCCUCGGUAAUGGCGAAUGGGACCCA

Variants of: B1
Test: self-cleavage, relative activity (ratio to wild type); higher = more cleavage; co-transcriptional

Variant | self-cleavage
G50A A51G | 1.03
C49G C57U | 0.945
G50U C63U | 0.909
G50U C63G | 0.332
G50U G82U | 0.633
C49G A87G | 0.969
C49G A87U | 0.913
A51U G52A | 1.15
A51C G76U | 1.11
A51C U79C | 0.447
G50U C86A | 0.727
A51U G81C | 0.407
C48U C75A | 0.199
G50A C84U | 0.754
A51G U72A | 0.665
G50U G54U | 0.668
G50C G82A | 0.364
G50C G82U | 0.217
G50C G82C | 0.383
C48G G59C | 0.831
C49A G52C | 0.573
A51G A70G | 1.16
C48U G80A | 0.297
C48U G80C | 0.243

Variant | self-cleavage
G50C C85G | 0.831
G50C C85U | 1.09
C48U U69A | 1.04
C48U U69C | 1.07
C48G U79A | 0.911
C49A G73U | 0.272
C49A C63G | 0.256
C49A C63U | 0.817
C49G C75U | 0.201
C49A G80U | 0.188
C49A G80C | 0.0665
C49G C64U | 0.973
C49G C64A | 0.375
A51U C85U | 0.916
A51U C85G | 0.831
G50U U69C | 0.962
C48U C85A | 1.03
A51C C61G | 0.731
G52A G74U | 0.561
G52A G74C | 0.133
C49G A83U | 0.35
C49G G73U | 0.322
C49A G76C | 1.22
A51G G68C | 0.831

Variant | self-cleavage
A51G G68A | 0.901
A51G G52A | 1
A51U C66U | 1.07
G50A G52U | 0.688
A51G G80A | 0.376
C48U A56C | 0.657
A51C C57A | 1.02
G50U G76U | 1.04
C48U U60C | 1.27
G50C A87U | 1.15
G50C A87G | 0.974
G50C A87C | 0.95
C49U C64G | 0.684
A51U U65G | 1.3
C49U G67C | 1.1
G52A U65A | 0.954
A51C A78C | 0.277
C49G G55C | 1.03
A51U G67A | 0.78
A51U G67U | 0.816
G52C A83C | 0.475
C48U A70C | 0.649
C48U C63U | 0.969
C48U C63G | 0.542

Variant | self-cleavage
G50C G54C | 0.32
G50U U65A | 0.981
G50U U65C | 0.791
C49U U65C | 0.902
C48U G55A | 0.75
G50U C84U | 0.665
G50U C58U | 0.909
C49U C66G | 0.892
C49U A51G | 1.01
C49U G81A | 0.378
C49A A70C | 0.831
A51U G53A | 0.927
G50A A71C | 0.633
C48U A78C | 0.115
C48G G67A | 0.91
C48G G54A | 0.372
G52A C64G | 0.935
A51U C63U | 0.88
A51C A70U | 1.15
A51C A70G | 0.849
A51U U79C | 0.49
A51U U79A | 1.09
G52C A70G | 0.702
G50C G81C | 0.125

Variant | self-cleavage
A51C C75A | 0.0449
G50U A83U | 0.683
G52A C57A | 0.963
G50C U65C | 1.05
G50C U65G | 0.453
C48U U72C | 0.554
C48U U72A | 0.855
G50U U60G | 0.831
G50A U65A | 1.02
C49U A77C | 0.469
A51C U65C | 0.942
C49G U65C | 0.675
A51U G80A | 0.344
C49G A77C | 0.119
C48G G74A | 0.305
C48G G74C | 0.0755
A51C C84G | 0.536
A51C C84U | 0.831
G52A C61A | 1.19
C49A A78U | 0.248
G52A G82U | 0.367
C49U C62A | 0.652
A51C C62G | 0.151
G52A G68A | 0.788

Variant | self-cleavage
C48U U79G | 0.665
C48U U79A | 0.706
C49U C58A | 1.02
C49U C58G | 1.01
C49A C66A | 0.786
A51U U69A | 0.95
C48U G67A | 0.818
G50C A83C | 0.317
G52A C84U | 0.691
G52A C84G | 0.764
C49A U69C | 1.13
G50U G67U | 1.02
C49A G81A | 0.242
C49A G81C | 0.189
C49G A56C | 0.785
G52A C58G | 0.974
G52A C58U | 0.888
G52A G81U | 0.244
A51U U72G | 0.534
A51U A78G | 0.532
C48U C61U | 0.856
A51C G54C | 0.787
A51C G73A | 0.383
C49A G82U | 0.437

Variant | self-cleavage
G50C G55U | 0.776
G50C G55A | 0.959
A51G C84A | 0.698
A51G G81C | 0.266
A51G C75U | 0.217
C48U C57A | 0.972
G50U C64G | 0.703
G50U A77C | 0.499
C48G G55U | 0.972
C48G G55C | 0.851
C49U G53U | 1.02
C49G C86G | 0.587
A51U G74A | 0.288
C48U G68C | 0.959
C48U G68U | 0.893
C48U G59A | 1.06
C48G C86A | 1.09
G50A U69C | 0.688
A51G G67U | 0.65
A51C G55A | 0.873
G50U A71U | 1.02
C49U A83C | 0.615
C49U A83G | 0.883

From the RNAGym collection of RNA variant scans (doi:10.7554/elife.80360)
